Laboratory results from PMC6925134.

Columns and labels:
RNF208 [1] = target: RNF208 (UniProt Q9H0X6); experiment: anti-Flag co-IP, Myc immunoblot; settings: reference: wild type; sites S39
RNF208 [2] = target: RNF208 (UniProt Q9H0X6); experiment: anti-Flag co-IP, immunoblot; settings: reference: wild type; sites S39

binding against the reference (RNF208 [1]): lost
binding against the reference (RNF208 [2]): weaker
Substance: Vimentin (from UniProt P08670) S39A
